This passage reports Kd results from patent publication US20260055205A1 (published 2026).

In this assay the target is T1, human CD3 epsilon (human, UniProt P07766 23-126, limits assumed).
T1 construct: also called huCD3e
As to the kind of experiment: Octet, crude lysate. How it is done: Pool 2 consisted of paTCE molecules each containing PSMA.262 and one of 64 CD3.23 mutation combination variants. Stability and affinity of the individually expressed molecules in the form of crude lysate was evaluated by Octet. […] The binding of these anti-CD3 molecules (CD3.227, CD3.228, CD3.229 and CD3.230) to human and cynomolgus CD3 was measured by Octet and the Tm was measured by Differential Scanning Fluorimetry. All variants were paired with PSMA.262 except for CD3.23 which was paired with PSMA.5.

T1 sequence (P07766 23-126 limits assumed): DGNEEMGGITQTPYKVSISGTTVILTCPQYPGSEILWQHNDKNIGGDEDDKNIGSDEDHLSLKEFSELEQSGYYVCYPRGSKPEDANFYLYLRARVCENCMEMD

B1: CD3.222 (bispecific antibody, V domains shown)
VH: EVQLVESGGGIVQPGGSLRLSCAASGFTFSTYAMNWVRQAPGKGLEWVGRIRTKTNNYATYYADSVKGRFTISRDDSKNTVYLQMNELKTEDTAVYYCVRHENFGNSYVSWFAHWGQGTLVTVSS
VL: ELVVTQEPSLTVSPGGTVTLTCRSSNGAVTSSNYANWVQQKPGQAPRGLIGGTNKRAPGTPARFSGSLLGGKAALTLSGVQPEDEAVYYCALWYPNLWVFGGGTKLTVL
notes: paTCE with PSMA.262; also called AC3653
For the molecule B1, the Kd (in general, the equilibrium constant for the complex coming apart) was 10.8 nM.

B2: CD3.225 (bispecific antibody, V domains shown)
VH: EVQLVESGGGIVQPGGSLRLSCAASGFTFNTYAMNWVRQAPGKGLEWVGRIRTKYNNYATTYADSVKGRFTISRDDSKNTVYLQMNELKTEDTAVYYCVRHENFGNSYVSWFAHWGQGTLVTVSS
VL: ELVVTQEPSLTVSPGGTVTLTCRSSNGAVTSSNYANWVQQKPGQAPRGLIGGTNKRAPGTPARFSGSLLGGKAALTLSGVQPEDEAVYYCALWYPNLWVFGGGTKLTVL
notes: paTCE with PSMA.262; also called AC3656
With B2, the Kd is 19.5 nM.

B3: CD3.245 (bispecific antibody, V domains shown)
VH: EVQLVESGGGIVQPGGSLRLSCAASGFTFNTYAMNWVRQAPGKGLEWVGRIRSKYNNGATYYADSVKGRFTISRDDSKNTLYLQMNELKTEDTAVYYCVRHENFGNSYVSWFAHWGQGTLVTVSS
VL: ELVVTQEPSLTVSPGGTVTLTCRSSNGAVTSSNYANWVQQKPGQAPRGLIGGTNKRAPGTPARFSGSLLGGKAALTLSGVQPEDEAVYYCALWYPNLWVFGGGTKLTVL
notes: paTCE with PSMA.262; also called AC3676
For B3, the Kd was found to be 19.3 nM.

B4: CD3.238 (bispecific antibody, V domains shown)
VH: EVQLVESGGGIVQPGGSLRLSCAASGFTFNTYAMNWVRQAPGKGLEWVARIRTKYNNYATTYADSVKDRFTISRDDSKNTVYLQMNSLKTEDTAVYYCVRHENFGNSYVSWFAHWGQGTLVTVSS
VL: ELVVTQEPSLTVSPGGTVTLTCRSSNGAVTSSNYANWVQQKPGQAPRGLIGGTNKRAPGTPARFSGSLLGGKAALTLSGVQPEDEAVYYCALWYPNLWVFGGGTKLTVL
notes: paTCE with PSMA.262; also called AC3669
Regarding B4, the Kd was 23.1 nM.

B5: CD3.233 (bispecific antibody, V domains shown)
VH: EVQLVESGGGIVQPGGSLRLSCAASGFTFNTYAMNWVRQAPGKGLEWVGRIRTKYNNYATTYADSVKGRFTISRDDSKNTVYLQMNSLKTEDTAVYYCVRHENFGNSYVSWFAHWGQGTLVTVSS
VL: ELVVTQEPSLTVSPGGTVTLTCRSSNGAVTSSNYANWVQQKPGQAPRGLIGGTNKRAPGTPARFSGSLLGGKAALTLSGVQPEDEAVYYCALWYPNLWVFGGGTKLTVL
notes: paTCE with PSMA.262; also called AC3664
As for B5, the Kd came to 24.9 nM.

B6: CD3.224 (bispecific antibody, V domains shown)
VH: EVQLVESGGGIVQPGGSLRLSCAASGFTFSTYAMNWVRQAPGKGLEWVGRIRTKYNDYATYYADSVKGRFTISRDDSKNTVYLQMNELKTEDTAVYYCVRHENFGNSYVSWFAHWGQGTLVTVSS
VL: ELVVTQEPSLTVSPGGTVTLTCRSSNGAVTSSNYANWVQQKPGQAPRGLIGGTNKRAPGTPARFSGSLLGGKAALTLSGVQPEDEAVYYCALWYPNLWVFGGGTKLTVL
notes: paTCE with PSMA.262; also called AC3655
For the molecule B6, the Kd was determined as 6.4 nM.

B7: CD3.246 (bispecific antibody, V domains shown)
VH: EVQLVESGGGIVQPGGSLRLSCAASGFTFNTYAMNWVRQAPGKGLEWVARIRTKYNNYATTYADSVKDRFTISRDDSKNTLYLQMNSLKTEDTAVYYCVRHENFGNSYVSWFAHWGQGTLVTVSS
VL: ELVVTQEPSLTVSPGGTVTLTCRSSNGAVTSSNYANWVQQKPGQAPRGLIGGTNKRAPGTPARFSGSLLGGKAALTLSGVQPEDEAVYYCALWYPNLWVFGGGTKLTVL
notes: paTCE with PSMA.262; also called AC3677
B7: the Kd stood at 35.2 nM.

B8: CD3.241 (bispecific antibody, V domains shown)
VH: EVQLVESGGGIVQPGGSLRLSCAASGFTFNTYAMNWVRQAPGKGLEWVARIRSKTNNYATTYADSVKDRFTISRDDSKNTVYLQMNSLKTEDTAVYYCVRHENFGNSYVSWFAHWGQGTLVTVSS
VL: ELVVTQEPSLTVSPGGTVTLTCRSSNGAVTSSNYANWVQQKPGQAPRGLIGGTNKRAPGTPARFSGSLLGGKAALTLSGVQPEDEAVYYCALWYPNLWVFGGGTKLTVL
notes: paTCE with PSMA.262; also called AC3672
Regarding B8, the dissociation constant (Kd) came out at 92.6 nM.

B9: CD3.236 (bispecific antibody, V domains shown)
VH: EVQLVESGGGIVQPGGSLRLSCAASGFTFNTYAMNWVRQAPGKGLEWVGRIRSKYNNGATYYADSVKGRFTISRDDSKNTVYLQMNSLKTEDTAVYYCVRHENFGNSYVSWFAHWGQGTLVTVSS
VL: ELVVTQEPSLTVSPGGTVTLTCRSSNGAVTSSNYANWVQQKPGQAPRGLIGGTNKRAPGTPARFSGSLLGGKAALTLSGVQPEDEAVYYCALWYPNLWVFGGGTKLTVL
notes: paTCE with PSMA.262; also called AC3667
In the case of B9, the Kd was determined as 21.9 nM.

B10: CD3.235 (bispecific antibody, V domains shown)
VH: EVQLVESGGGIVQPGGSLRLSCAASGFTFNTYAMNWVRQAPGKGLEWVGRIRSKYNEYATYYADSVKGRFTISRDDSKNTVYLQMNSLKTEDTAVYYCVRHENFGNSYVSWFAHWGQGTLVTVSS
VL: ELVVTQEPSLTVSPGGTVTLTCRSSNGAVTSSNYANWVQQKPGQAPRGLIGGTNKRAPGTPARFSGSLLGGKAALTLSGVQPEDEAVYYCALWYPNLWVFGGGTKLTVL
notes: paTCE with PSMA.262; also called AC3666
Take B10: the Kd worked out at 6.5 nM.

B11: CD3.237 (bispecific antibody, V domains shown)
VH: EVQLVESGGGIVQPGGSLRLSCAASGFTFNTYAMNWVRQAPGKGLEWVGRIRSKYNNGATYYADSVKGRFTISRDDSKNTVYLQMNELKTEDTAVYYCVRHENFGNSYVSWFAHWGQGTLVTVSS
VL: ELVVTQEPSLTVSPGGTVTLTCRSSNGAVTSSNYANWVQQKPGQAPRGLIGGTNKRAPGTPARFSGSLLGGKAALTLSGVQPEDEAVYYCALWYPNLWVFGGGTKLTVL
notes: paTCE with PSMA.262; also called AC3668
Take B11: the Kd is 22.2 nM.

B12: CD3.232 (bispecific antibody, V domains shown)
VH: EVQLVESGGGIVQPGGSLRLSCAASGFTFSTYAMNWVRQAPGKGLEWVGRIRTKYNDYATYYADSVKGRFTISRDDSKNTVYLQMNSLKTEDTAVYYCVRHENFGNSYVSWFAHWGQGTLVTVSS
VL: ELVVTQEPSLTVSPGGTVTLTCRSSNGAVTSSNYANWVQQKPGQAPRGLIGGTNKRAPGTPARFSGSLLGGKAALTLSGVQPEDEAVYYCALWYPNLWVFGGGTKLTVL
notes: paTCE with PSMA.262; also called AC3663
For B12, the Kd turned out to be 5.1 nM.

B13: CD3.242 (bispecific antibody, V domains shown)
VH: EVQLVESGGGIVQPGGSLRLSCAASGFTFNTYAMNWVRQAPGKGLEWVGRIRSKYNDYATYYADSVKGRFTISRDDSKNTLYLQMNSLKTEDTAVYYCVRHENFGNSYVSWFAHWGQGTLVTVSS
VL: ELVVTQEPSLTVSPGGTVTLTCRSSNGAVTSSNYANWVQQKPGQAPRGLIGGTNKRAPGTPARFSGSLLGGKAALTLSGVQPEDEAVYYCALWYPNLWVFGGGTKLTVL
notes: paTCE with PSMA.262; also called AC3673
Regarding B13, the Kd turned out to be 7.7 nM.

B14: CD3.244 (bispecific antibody, V domains shown)
VH: EVQLVESGGGIVQPGGSLRLSCAASGFTFNTYAMNWVRQAPGKGLEWVGRIRSKYNNGATYYADSVKGRFTISRDDSKNTLYLQMNSLKTEDTAVYYCVRHENFGNSYVSWFAHWGQGTLVTVSS
VL: ELVVTQEPSLTVSPGGTVTLTCRSSNGAVTSSNYANWVQQKPGQAPRGLIGGTNKRAPGTPARFSGSLLGGKAALTLSGVQPEDEAVYYCALWYPNLWVFGGGTKLTVL
notes: paTCE with PSMA.262; also called AC3675
With B14, the Kd came to 43.6 nM.

B15: CD3.239 (bispecific antibody, V domains shown)
VH: EVQLVESGGGIVQPGGSLRLSCAASGFTFNTYAMNWVRQAPGKGLEWVARIRSKRNNYATTYADSVKDRFTISRDDSKNTVYLQMNSLKTEDTAVYYCVRHENFGNSYVSWFAHWGQGTLVTVSS
VL: ELVVTQEPSLTVSPGGTVTLTCRSSNGAVTSSNYANWVQQKPGQAPRGLIGGTNKRAPGTPARFSGSLLGGKAALTLSGVQPEDEAVYYCALWYPNLWVFGGGTKLTVL
notes: paTCE with PSMA.262; also called AC3670
B15: the Kd amounted to 29.9 nM.

B16: CD3.223 (bispecific antibody, V domains shown)
VH: EVQLVESGGGIVQPGGSLRLSCAASGFTFNTYAMNWVRQAPGKGLEWVGRIRTKYNDYATYYADSVKGRFTISRDDSKNTVYLQMNELKTEDTAVYYCVRHENFGNSYVSWFAHWGQGTLVTVSS
VL: ELVVTQEPSLTVSPGGTVTLTCRSSNGAVTSSNYANWVQQKPGQAPRGLIGGTNKRAPGTPARFSGSLLGGKAALTLSGVQPEDEAVYYCALWYPNLWVFGGGTKLTVL
notes: paTCE with PSMA.262; also called AC3654
With B16, the equilibrium dissociation constant (Kd) is 6 nM.

B17: CD3.234 (bispecific antibody, V domains shown)
VH: EVQLVESGGGIVQPGGSLRLSCAASGFTFSTYAMNWVRQAPGKGLEWVGRIRTKYNNYATTYADSVKGRFTISRDDSKNTVYLQMNSLKTEDTAVYYCVRHENFGNSYVSWFAHWGQGTLVTVSS
VL: ELVVTQEPSLTVSPGGTVTLTCRSSNGAVTSSNYANWVQQKPGQAPRGLIGGTNKRAPGTPARFSGSLLGGKAALTLSGVQPEDEAVYYCALWYPNLWVFGGGTKLTVL
notes: paTCE with PSMA.262; also called AC3665
Turning to B17, the Kd came to 17.4 nM.

B18: CD3.231 (bispecific antibody, V domains shown)
VH: EVQLVESGGGIVQPGGSLRLSCAASGFTFNTYAMNWVRQAPGKGLEWVGRIRTKYNDYATYYADSVKGRFTISRDDSKNTVYLQMNSLKTEDTAVYYCVRHENFGNSYVSWFAHWGQGTLVTVSS
VL: ELVVTQEPSLTVSPGGTVTLTCRSSNGAVTSSNYANWVQQKPGQAPRGLIGGTNKRAPGTPARFSGSLLGGKAALTLSGVQPEDEAVYYCALWYPNLWVFGGGTKLTVL
notes: paTCE with PSMA.262; also called AC3662
Take B18: the Kd stood at 5.1 nM.

B19: CD3.226 (bispecific antibody, V domains shown)
VH: EVQLVESGGGIVQPGGSLRLSCAASGFTFSTYAMNWVRQAPGKGLEWVGRIRTKYNNYATTYADSVKGRFTISRDDSKNTVYLQMNELKTEDTAVYYCVRHENFGNSYVSWFAHWGQGTLVTVSS
VL: ELVVTQEPSLTVSPGGTVTLTCRSSNGAVTSSNYANWVQQKPGQAPRGLIGGTNKRAPGTPARFSGSLLGGKAALTLSGVQPEDEAVYYCALWYPNLWVFGGGTKLTVL
notes: paTCE with PSMA.262; also called AC3657
Turning to B19, the Kd was 50.9 nM.

B20: CD3.240 (bispecific antibody, V domains shown)
VH: EVQLVESGGGIVQPGGSLRLSCAASGFTFNTYAMNWVRQAPGKGLEWVARIRSKKNNYATTYADSVKDRFTISRDDSKNTVYLQMNSLKTEDTAVYYCVRHENFGNSYVSWFAHWGQGTLVTVSS
VL: ELVVTQEPSLTVSPGGTVTLTCRSSNGAVTSSNYANWVQQKPGQAPRGLIGGTNKRAPGTPARFSGSLLGGKAALTLSGVQPEDEAVYYCALWYPNLWVFGGGTKLTVL
notes: paTCE with PSMA.262; also called AC3671
For the molecule B20, the Kd stood at 16.5 nM.
